Data published in publication PMC3889140 (Bioorganic & medicinal chemistry letters, 2013).
“Also recorded” adds a separate entry of the source. Positions of bridges follow the written chain, without caps; N, C: chain ends. Non-standard residues stand in square brackets, D forms with d. Residues, ends and D or L forms follow the SMILES beside them.

Assays:
[1] = test system: B16/F1 melanoma-bearing C57 mouse; assay: SPECT/CT melanoma imaging; format: in vivo; conditions: flank B16/F1 melanoma, 2 h post-injection, about 7.4 MBq, one mouse
[2] = test system: B16/F1 melanoma cells; assay: Cellular internalization in B16/F1 melanoma cells; format: cell-based, murine
[3] = in vivo; set-up: species or system C57 mice; conditions: C57, mouse, iv, total radioactivity; for tissue uptake dose at 2 h: percent injected dose
[4] = 0.037 MBq, Kidneys (renal) uptake
[5] = 0.037 MBq, Uptake ratio Tumor/Lung

CC(C)[C@H](NC(=O)[C@@H]1CCCN1C(=O)[C@H](CCCNC(=N)N)NC(=O)[C@H](CS)NC(=O)[C@H](Cc1c[nH]c2ccccc12)NC(=O)[C@H](CCCNC(=N)N)NC(=O)[C@@H](Cc1ccccc1)NC(=O)[C@H](Cc1c[nH]cn1)NC(=O)[C@H](CCC(=O)O)NC(=O)[C@H](CS)NC(=O)[C@H](CS)NC(=O)[C@H](CCCNC(=N)N)NC(=O)[C@@H]1CC(=O)N[C@@H](CCCNC(=N)N)C(=O)N[C@@H](C)C(=O)N[C@@H](CC(=O)O)C(=O)N[C@H](Cc2ccc(O)cc2)C(=O)N1)C(N)=O [^99mTc-RAD-Arg-(Arg^11)CCMSH, metal not drawn] (RAD[dY]DRCCEH[dF]RWCRPV-NH2; lactam N-5; C-terminus assumed)
melanoma imaging by SPECT/CT [1]: visualized clearly; also recorded: clearly imaged | activity internalized ([2]; 20 min post incubation): Approximately 77.81 ± 4.46% | activity internalized ([2]; after 2 h incubation): 81.26 ± 4.81% | tissue uptake at 0.5 h ([3]; 0.037 MBq, Blood uptake): 3.43 ± 0.37 %ID/g | tissue uptake at 2 h ([3]; 0.037 MBq, Blood uptake): 0.59 ± 0.17 %ID/g | tissue uptake at 4 h ([3]; 0.037 MBq, Blood uptake): 0.1 ± 0.06 %ID/g | tissue uptake at 24 h ([3]; 0.037 MBq, Blood uptake): 0.04 ± 0.01 %ID/g | tissue uptake at 0.5 h ([3]; 0.037 MBq, Bone uptake): 1.97 ± 0.22 %ID/g | tissue uptake at 2 h ([3]; 0.037 MBq, Bone uptake): 0.64 ± 0.25 %ID/g | tissue uptake at 4 h ([3]; 0.037 MBq, Bone uptake): 0.34 ± 0.13 %ID/g | tissue uptake at 24 h ([3]; 0.037 MBq, Bone uptake): 0.14 ± 0.04 %ID/g | tissue uptake at 0.5 h ([3]; 0.037 MBq, Brain uptake): 0.16 ± 0.04 %ID/g | tissue uptake at 2 h ([3]; 0.037 MBq, Brain uptake): 0.04 ± 0.02 %ID/g | tissue uptake at 4 h ([3]; 0.037 MBq, Brain uptake): 0.02 ± 0.02 %ID/g | tissue uptake at 24 h ([3]; 0.037 MBq, Brain uptake): 0.02 %ID/g | tissue uptake at 0.5 h ([3]; 0.037 MBq, Heart uptake): 1.71 ± 0.58 %ID/g | tissue uptake at 2 h ([3]; 0.037 MBq, Heart uptake): 0.5 ± 0.14 %ID/g | tissue uptake at 4 h ([3]; 0.037 MBq, Heart uptake): 0.21 ± 0.03 %ID/g | tissue uptake at 24 h ([3]; 0.037 MBq, Heart uptake): 0.1 ± 0.02 %ID/g | tissue uptake at 0.5 h [3, 4]: 41.2 ± 4.48 %ID/g | tissue uptake at 2 h [3, 4]: 35.6 ± 9.61 %ID/g | tissue uptake at 4 h [3, 4]: 26.5 ± 0.62 %ID/g | tissue uptake at 24 h [3, 4]: 12 ± 2.29 %ID/g | tissue uptake at 0.5 h ([3]; 0.037 MBq, Liver uptake): 3.07 ± 0.08 %ID/g | tissue uptake at 2 h ([3]; 0.037 MBq, Liver uptake): 1.88 ± 0.35 %ID/g | tissue uptake at 4 h ([3]; 0.037 MBq, Liver uptake): 1.47 ± 0.11 %ID/g | tissue uptake at 24 h ([3]; 0.037 MBq, Liver uptake): 1.18 ± 0.28 %ID/g | tissue uptake at 0.5 h ([3]; 0.037 MBq, Lung uptake): 5.42 ± 0.7 %ID/g | tissue uptake at 2 h ([3]; 0.037 MBq, Lung uptake): 1.15 ± 0.22 %ID/g | tissue uptake at 4 h ([3]; 0.037 MBq, Lung uptake): 0.4 ± 0.16 %ID/g | tissue uptake at 24 h ([3]; 0.037 MBq, Lung uptake): 0.16 ± 0.03 %ID/g | tissue uptake at 0.5 h ([3]; 0.037 MBq, Muscle uptake): 0.8 ± 0.46 %ID/g | tissue uptake at 2 h ([3]; 0.037 MBq, Muscle uptake): 0.2 ± 0.15 %ID/g | tissue uptake at 4 h ([3]; 0.037 MBq, Muscle uptake): 0.15 ± 0.1 %ID/g | tissue uptake at 24 h ([3]; 0.037 MBq, Muscle uptake): 0.03 ± 0.02 %ID/g | tissue uptake at 0.5 h ([3]; 0.037 MBq, Pancreas uptake): 1.06 ± 0.33 %ID/g | tissue uptake at 2 h ([3]; 0.037 MBq, Pancreas uptake): 0.2 ± 0.11 %ID/g | tissue uptake at 4 h ([3]; 0.037 MBq, Pancreas uptake): 0.1 ± 0.05 %ID/g | tissue uptake at 24 h ([3]; 0.037 MBq, Pancreas uptake): 0.1 ± 0.05 %ID/g | tissue uptake at 0.5 h ([3]; 0.037 MBq, Skin uptake): 5.43 ± 0.41 %ID/g | tissue uptake at 2 h ([3]; 0.037 MBq, Skin uptake): 1.1 ± 0.39 %ID/g | tissue uptake at 4 h ([3]; 0.037 MBq, Skin uptake): 0.53 ± 0.09 %ID/g | tissue uptake at 24 h ([3]; 0.037 MBq, Skin uptake): 0.24 ± 0.1 %ID/g | tissue uptake at 0.5 h ([3]; 0.037 MBq, Spleen uptake): 2.12 ± 0.57 %ID/g | tissue uptake at 2 h ([3]; 0.037 MBq, Spleen uptake): 0.61 ± 0.31 %ID/g | tissue uptake at 4 h ([3]; 0.037 MBq, Spleen uptake): 0.25 ± 0.12 %ID/g | tissue uptake at 24 h ([3]; 0.037 MBq, Spleen uptake): 0.41 ± 0.14 %ID/g | tissue uptake at 0.5 h ([3]; 0.037 MBq, Stomach uptake): 3.13 ± 0.62 %ID/g | tissue uptake at 2 h ([3]; 0.037 MBq, Stomach uptake): 1.63 ± 0.43 %ID/g | tissue uptake at 4 h ([3]; 0.037 MBq, Stomach uptake): 1.41 ± 0.74 %ID/g | tissue uptake at 24 h ([3]; 0.037 MBq, Stomach uptake): 0.28 ± 0.09 %ID/g | tissue uptake at 0.5 h ([3]; 0.037 MBq, Tumor uptake): 8.46 ± 3.7 %ID/g | tissue uptake at 2 h ([3]; 0.037 MBq, Tumor uptake): 18 ± 4.96 %ID/g | tissue uptake at 4 h ([3]; 0.037 MBq, Tumor uptake): 14.1 ± 2.9 %ID/g | tissue uptake at 24 h ([3]; 0.037 MBq, Tumor uptake): 10.2 ± 2.66 %ID/g | tissue to tissue ratio at 0.5 h [3, 5]: 1.56 | tissue to tissue ratio at 2 h [3, 5]: 15.6 | tissue to tissue ratio at 4 h [3, 5]: 35.2 | tissue to tissue ratio at 24 h [3, 5]: 63.5 | tissue uptake dose at 2 h ([3]; Bladder): 77.8 ± 2.34 %ID | tissue uptake dose at 2 h ([3]; Intestines): 2.5 ± 0.16 %ID | tissue to tissue ratio at 2 h ([3]; Uptake ratio Tumor/Blood): 2.41 | tissue to tissue ratio at 2 h ([3]; Uptake ratio Tumor/Kidneys): 0.09 | tissue to tissue ratio at 2 h ([3]; Uptake ratio Tumor/Liver): 1.12 | tissue to tissue ratio at 2 h ([3]; Uptake ratio Tumor/Lung): 1.73 | tissue to tissue ratio at 2 h ([3]; Uptake ratio Tumor/Muscle): 10.4
